{
  "source": "paper PMC12802285",
  "about": "“PPE64 is a mycomembrane channel protein that functions in heme iron uptake and moonlights in biofilm formation in Mycobacterium tuberculosis” (mBio, 2025)",
  "biological_target": "the molecule itself",
  "experiment": "native gel or EMSA",
  "note": "“And” between values parts separate entries of the source, which are not always exact repeats. Equal values may be shown once.",
  "data": [
    {"protein": "PPE64 mycomembrane channel protein (recombinant, detergent-refolded) (natural protein, also called PPE64_(OPOE); PPE64DDM) MAHFSVLPPEINSLRMYLGAGSAPMLQAAAAWDGLAAELGTAASSFSSVTTGLTGQAWQGPASAAMAAAAAPYAGFLTTASAQAQLAAGQAKAVASVFEAAKAAIVPPAAVAANREAFLALIRSNWLGLNAPWIAAVESLYEEYWAADVAAMTGYHAGASQAAAQLPLPAGLQQFLNTLPNLGIGNQGNANLGGGNTGSGNIGNGNKGSSNLGGGNIGNNNIGSGNRGSDNFGAGNVGTGNIGFGNQGPIDVNLLATPGQNNVGLGNIGNNNMGFGNTGDANTGGGNTGNGNIGGGNTGNNNFGFGNTGNNNIGIGLTGNNQMGINLAGLLNSGSGNIGIGNSGTNNIGLFNSGSGNIGVFNTGANTLVPGDLNNLGVGNSGNANIGFGNAGVLNTGFGNASILNTGLGNAGELNTGFGNAGFVNTGFDNSGNVNTGNGNSGNINTGSWNAGNVNTGFGIITDSGLTNSGFGNTGTDVSGFFNTPTGPLAVDVSGFFNTASGGTVINGQTSGIGNIGVPGTLFGSVRSGLNTGLFNMGTAISGLFNLRQLLG", "values": [
      {"measurement": "stoichiometry N", "result": "9 and 3"}
    ]}
  ]
}
